According to patent US20110010786A1 (published 2011):

Target: T1, human factor VIII (human, UniProt P00451 20-2351)
T1 construct: also called FVIII
Assay: Surface Plasmon Resonance

T1 sequence (P00451 20-2351 limits assumed): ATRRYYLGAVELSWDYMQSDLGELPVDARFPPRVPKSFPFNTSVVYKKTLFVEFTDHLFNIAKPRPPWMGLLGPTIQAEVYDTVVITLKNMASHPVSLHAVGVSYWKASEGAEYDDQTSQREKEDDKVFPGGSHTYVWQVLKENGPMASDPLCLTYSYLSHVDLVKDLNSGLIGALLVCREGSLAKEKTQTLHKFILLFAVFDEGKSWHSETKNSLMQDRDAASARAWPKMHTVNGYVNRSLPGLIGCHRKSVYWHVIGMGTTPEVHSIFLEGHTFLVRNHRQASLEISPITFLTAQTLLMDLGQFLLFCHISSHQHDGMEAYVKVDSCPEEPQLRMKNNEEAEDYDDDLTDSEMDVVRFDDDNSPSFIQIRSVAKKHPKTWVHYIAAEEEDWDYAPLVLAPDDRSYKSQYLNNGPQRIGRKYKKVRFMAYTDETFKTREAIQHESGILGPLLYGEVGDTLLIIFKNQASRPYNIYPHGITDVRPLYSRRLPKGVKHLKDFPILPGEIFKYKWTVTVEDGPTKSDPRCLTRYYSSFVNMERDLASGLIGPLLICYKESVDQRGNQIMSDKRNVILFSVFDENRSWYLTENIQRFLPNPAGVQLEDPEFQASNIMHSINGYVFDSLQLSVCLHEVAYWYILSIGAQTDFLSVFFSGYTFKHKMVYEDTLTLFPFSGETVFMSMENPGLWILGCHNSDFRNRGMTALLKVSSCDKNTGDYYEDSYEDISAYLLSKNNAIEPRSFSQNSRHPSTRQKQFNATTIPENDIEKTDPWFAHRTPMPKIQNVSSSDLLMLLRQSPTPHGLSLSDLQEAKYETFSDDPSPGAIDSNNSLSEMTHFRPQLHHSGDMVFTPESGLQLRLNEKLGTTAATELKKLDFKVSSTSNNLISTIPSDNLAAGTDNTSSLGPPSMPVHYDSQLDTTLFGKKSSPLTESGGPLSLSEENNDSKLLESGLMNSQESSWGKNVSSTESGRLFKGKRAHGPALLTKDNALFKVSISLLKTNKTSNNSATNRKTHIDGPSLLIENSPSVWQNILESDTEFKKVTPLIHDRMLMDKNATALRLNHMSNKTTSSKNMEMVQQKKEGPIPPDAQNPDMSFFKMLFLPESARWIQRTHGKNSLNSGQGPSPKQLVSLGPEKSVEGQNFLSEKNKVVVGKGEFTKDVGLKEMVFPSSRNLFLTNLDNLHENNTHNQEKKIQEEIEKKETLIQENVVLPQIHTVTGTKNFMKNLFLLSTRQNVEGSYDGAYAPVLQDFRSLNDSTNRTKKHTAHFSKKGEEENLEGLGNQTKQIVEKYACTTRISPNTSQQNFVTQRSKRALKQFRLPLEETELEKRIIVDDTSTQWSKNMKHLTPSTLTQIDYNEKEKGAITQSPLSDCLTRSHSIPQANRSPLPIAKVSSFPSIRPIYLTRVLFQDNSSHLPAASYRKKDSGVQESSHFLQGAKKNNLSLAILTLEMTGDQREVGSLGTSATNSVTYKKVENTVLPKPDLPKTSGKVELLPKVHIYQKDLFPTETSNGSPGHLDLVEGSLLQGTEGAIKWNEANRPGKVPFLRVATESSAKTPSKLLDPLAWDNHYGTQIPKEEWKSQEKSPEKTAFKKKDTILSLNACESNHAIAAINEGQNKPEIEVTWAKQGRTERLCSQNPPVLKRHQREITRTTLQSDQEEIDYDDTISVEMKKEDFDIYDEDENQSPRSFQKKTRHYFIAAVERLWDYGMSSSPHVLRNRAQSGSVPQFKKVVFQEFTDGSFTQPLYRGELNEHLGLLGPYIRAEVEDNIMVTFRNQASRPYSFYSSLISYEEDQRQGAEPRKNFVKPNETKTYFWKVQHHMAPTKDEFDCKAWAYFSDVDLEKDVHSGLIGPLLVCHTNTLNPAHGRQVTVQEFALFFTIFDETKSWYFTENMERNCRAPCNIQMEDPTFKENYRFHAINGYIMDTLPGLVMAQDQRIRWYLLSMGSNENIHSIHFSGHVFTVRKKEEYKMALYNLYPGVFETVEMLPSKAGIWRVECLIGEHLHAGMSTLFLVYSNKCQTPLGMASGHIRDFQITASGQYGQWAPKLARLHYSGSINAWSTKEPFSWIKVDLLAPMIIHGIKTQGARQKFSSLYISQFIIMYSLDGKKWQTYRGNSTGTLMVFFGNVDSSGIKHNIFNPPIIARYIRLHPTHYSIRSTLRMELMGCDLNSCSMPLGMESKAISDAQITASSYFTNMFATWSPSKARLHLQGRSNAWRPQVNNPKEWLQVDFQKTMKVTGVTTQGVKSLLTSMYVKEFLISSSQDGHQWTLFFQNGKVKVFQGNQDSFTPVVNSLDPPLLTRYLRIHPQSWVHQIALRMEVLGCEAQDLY

koff: ≤ 1e-05 s⁻¹
B1: human monoclonal antibody BO2C11 (antibody, V domains shown)
VH: QVQLVQSGAEVKKPGASVKVSCKVSGYTLTELPVHWVRQAPGKGLEWVGSFDPESGESIYAREFQGSVTMTADTSTDIAYMELSSLRSDDTAVYYCAVPDPDAFDIWGQGTMVTVSS
VL: EIALTQSPGTLSLSPGERATLSCRASQSFSSSYLAWYQQKPGQAPRLLIYGASTRATGIPDRFSGSGSGTDFTLTISRLEPEDFAVYYCQKYGTSAITFGQGTRLEIK
notes: also called B02C11
